B1: rhDkk-1 comprising a polyhistidine sequence at the carboxy terminus, labeled with europium chelate N1-isothiocyanate (Eu-rhDkk-1) (ligand, not shown: small tags and cut ends)
chain: TLNSVLNSNAIKNLPPPLGGAAGHPGSAVSAAPGILYPGGNKYQTIDNYQPYPCAEDEECGTDEYCASPTRGGDAGVQICLACRKRRKRCMRHAMCCPGNYCKNGICVSSDQNNFRGEIEETITESFGNDHSTLDGYSRRTTLSSKMYHSKGQEGSVCLRSSDCATGLCCARHFWSKICKPVLKEGQVCTKHRRKGSHGLEIFQRCYCGEGLSCRIQKDHHQASNSSRLHTCQRH
modifications: labeled with europium chelate N1-isothiocyanate, about 9 Eu molecules per protein (sites not given)
notes: Produced in baculovirus-infected insect cells and purified on a nickel column; also called labeled RhDkk-1 protein; polyhistidine-tagged RhDkk-1
B2: rhesus monkey dickkopf-1 (rhDkk-1), unlabeled competitor (ligand)
chain: B1 chain

Legend:
[1] = target: T1, human low-density lipoprotein receptor related protein 5 (LRP5) (human, UniProt O75197 32-1615); experiment: cell binding to HEK 293 cells stably overexpressing human LRP5, time resolved fluorescence of europium label
T1 construct: whole, on cells; also called human LRP5
T1 sequence (O75197 32-1615): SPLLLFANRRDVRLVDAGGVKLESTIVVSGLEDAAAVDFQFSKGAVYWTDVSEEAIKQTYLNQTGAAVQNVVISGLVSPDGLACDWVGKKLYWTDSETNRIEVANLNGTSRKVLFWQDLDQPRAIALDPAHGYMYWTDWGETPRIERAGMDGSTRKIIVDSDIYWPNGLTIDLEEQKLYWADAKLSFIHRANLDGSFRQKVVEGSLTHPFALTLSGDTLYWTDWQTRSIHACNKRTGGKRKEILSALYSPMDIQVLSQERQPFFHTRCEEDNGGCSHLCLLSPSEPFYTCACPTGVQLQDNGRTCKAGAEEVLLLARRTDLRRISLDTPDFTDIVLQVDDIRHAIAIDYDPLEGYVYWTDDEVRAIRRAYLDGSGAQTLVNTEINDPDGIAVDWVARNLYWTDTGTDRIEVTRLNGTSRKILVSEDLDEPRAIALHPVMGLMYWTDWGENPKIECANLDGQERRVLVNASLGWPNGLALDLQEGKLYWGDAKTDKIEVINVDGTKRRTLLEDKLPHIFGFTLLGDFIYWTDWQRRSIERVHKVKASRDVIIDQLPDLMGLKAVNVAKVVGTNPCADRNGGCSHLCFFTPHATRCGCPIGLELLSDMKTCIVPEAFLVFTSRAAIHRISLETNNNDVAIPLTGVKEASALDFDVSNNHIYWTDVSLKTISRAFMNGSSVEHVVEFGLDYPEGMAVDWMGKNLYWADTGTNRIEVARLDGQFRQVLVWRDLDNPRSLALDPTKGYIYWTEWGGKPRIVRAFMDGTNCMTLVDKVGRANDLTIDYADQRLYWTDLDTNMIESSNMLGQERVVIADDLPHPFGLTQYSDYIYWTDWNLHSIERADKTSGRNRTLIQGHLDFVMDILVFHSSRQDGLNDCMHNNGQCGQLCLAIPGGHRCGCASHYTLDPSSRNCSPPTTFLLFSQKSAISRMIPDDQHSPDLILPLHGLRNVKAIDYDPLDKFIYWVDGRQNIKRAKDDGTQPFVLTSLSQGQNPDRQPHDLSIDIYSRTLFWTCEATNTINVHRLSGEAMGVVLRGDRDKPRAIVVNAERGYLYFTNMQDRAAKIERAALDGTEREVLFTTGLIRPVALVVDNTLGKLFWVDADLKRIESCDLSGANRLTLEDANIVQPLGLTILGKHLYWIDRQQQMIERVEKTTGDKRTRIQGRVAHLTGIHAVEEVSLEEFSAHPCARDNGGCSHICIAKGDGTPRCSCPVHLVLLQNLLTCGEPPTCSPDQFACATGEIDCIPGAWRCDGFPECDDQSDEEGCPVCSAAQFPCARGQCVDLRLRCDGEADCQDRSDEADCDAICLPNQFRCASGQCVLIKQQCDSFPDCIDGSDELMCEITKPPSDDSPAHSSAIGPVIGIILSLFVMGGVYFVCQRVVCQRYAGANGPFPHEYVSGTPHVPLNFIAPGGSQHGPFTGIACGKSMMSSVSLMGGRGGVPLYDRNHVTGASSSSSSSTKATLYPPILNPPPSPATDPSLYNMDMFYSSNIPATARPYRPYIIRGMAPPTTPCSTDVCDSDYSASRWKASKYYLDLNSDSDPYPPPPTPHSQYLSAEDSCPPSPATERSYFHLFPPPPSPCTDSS

[2] = target: T1, human low-density lipoprotein receptor …; experiment: competition with Eu-rhDkk-1 for binding to human LRP5 on HEK 293 cells, time resolved fluorescence
Procedure: The rhDkk-1-LRP5 binding assays were carried out as follows. The recombinant HEK 293 cells stably overexpressing human LRP5 were plated into the wells of white/white, 384-well, PDL plates (BD Biosciences, San Jose, Calif.). Each well contained about 10,000 cells and 30 μL of medium containing 2.5% FBS. The next day, to each well, 250 nL of an analyte was added (high concentration copy, CyBi Disk) for final a concentration of about 30 μM. Next, 5 μL of Eu-rhDkk-1 (1 nM) was added to each of the wells (CyBi Well, 0.1 nM final concentration). After incubating at 37° C. for 30 minutes, the wells were washed four times each with a wash solution (Tris-buffered saline, pH 8.0) containing 0.02% Tween-20). After the final wash, 20 μL of Enhancement Solution (Perkin Elmer) was added to each of the wells. After incubating the wells in Enhancement Solution for 30 minutes at room temperature, the wells were vortexed and the time resolved fluorescence from the wells read using the […], a CCD-based optical imaging instrument that can measure fluorescence (Amersham Biosciences, Piscataway, N.J.).

[3] = target: T1, human low-density lipoprotein receptor …; experiment: competition with rhDkk-1-GFP fusion protein for binding to LRP5 on HEK 293 cells, fluorescence imaging (INCell 3000)
Procedure: The rhDkk-1-GFP fusion protein-LRP5 binding assays were as follows. Recombinant HEK-293 cells stably overexpressing human LRP5 were plated into the wells of a 384-well tissue culture plate (Corning) at a concentration of about 6,000 cells/well. Each well contained 45 μL of phenol red-free DMEM containing 2.5% FBS. To each well, an analyte was added to give a final concentration of 15 μM. A minute later, 5 μL of conditioned medium containing rhDkk-1-GFP and 10 μM DRAQ5 nuclear stain is added to each well and the wells incubated at 37 °C for 25 minutes. Imaging and evaluation of rhDkk-1-GFP fusion protein binding to the recombinant cells overexpressing LRP5 was determined using an INCell 3000 imager (Amersham, Piscataway, N.J.).

| Binder | Kd [1] | IC50 [2] | IC50 [3] |
| --- | --- | --- | --- |
| B1 | ~1 nM | – | – |
| B2 | – | ~0.2 nM | ~1 nM |

Reference: US20070111253A1 (MERCK, published 2007)
